Consider three substances from paper PMC4100148.

The target of assay [1] is SelP-H (His-rich domain of selenoprotein P), purified (human) (UniProt P49908). Put plainly: ITC; MicroCal iTC-200, 25 °C, Tris buffer (50 mM, pH 7.4); 1.3 mM Tub-C titrated into 228 μM SelP-H, 20 injections of 2 μL; sequential binding model (n = 2). (Isothermal titration calorimetry measures the heat released or taken up as one component is titrated into another.)
Assay [2] has as its target CFP-SelP' (Sec to Cys mutant of selenoprotein P fused to enhanced cyan fluorescence protein) (human) (UniProt P49908). Put plainly: FRET or BRET; sensitized emission method; HEK293T cells co-transfected with CFP (donor) and YFP (receptor) plasmids, confocal microscope 48 h after transfection, excitation 405 and 515 nm. (BRET reads energy transfer from a luciferase to a nearby fluorophore.)

The target is the same in assay [3]. Put plainly: FRET or BRET; acceptor (receptor) photobleaching method; HEK293T cells co-transfected with CFP and YFP plasmids; ROI bleached at 515 nm, donor imaged at 405 nm excitation; E = 1 - I(prebleaching)/I(postbleaching).
For assay [4], the target named is CFP-SelP-H (His-rich domain of selenoprotein P fused to CFP) (human) (UniProt P49908). The assay is described as above.

Take “Tub-C (the last 42 residues of α-tubulin), purified (from UniProt Q71U36 1-451) (domain or fragment)”: in assay [1], the association constant K1 (sequential binding model, first site) stood at 2100 M⁻¹; the association constant K2 (sequential binding model, second site) worked out at 1500 M⁻¹; the dH1 (sequential binding model, first site) was -1.8 kcal/mol; the dH2 (sequential binding model, second site) stood at 6.9 kcal/mol. Moreover, in assay [1], the stoichiometry N worked out at 2.
“YFP-Tub (α-tubulin fused to yellow fluorescence protein) (from UniProt Q71U36 1-451) (natural protein)”: in assay [2], the FRET efficiency E (average) was determined as 21.3%, the FRET efficiency E (cell 1) is 19.7%, the FRET efficiency E (cell 2) amounted to 18.7% and the FRET efficiency E (cell 3) worked out at 32.6%. In assay [2], the FRET efficiency E (cell 4) came out at 17.7% and the FRET efficiency E (cell 5) was found to be 18%. Moreover, in assay [3], the FRET efficiency E (average) stood at 21.8%, the FRET efficiency E (cell 1) came out at 17.6%, the FRET efficiency E (cell 2) amounted to 14.1% and the FRET efficiency E (cell 3) is 12.2%. In addition, in assay [3], the FRET efficiency E (cell 4) was 31.5%, the FRET efficiency E (cell 5) was determined as 20%, the FRET efficiency E (cell 6) is 26.7% and the FRET efficiency E (cell 7) worked out at 19.2%. Also, in assay [3], the FRET efficiency E (cell 8) was 17.9%, the FRET efficiency E (cell 9) was found to be 35.6%, the FRET efficiency E (cell 10) stood at 20.2% and the FRET efficiency E (cell 11) is 25%.
As for “YFP-Tub-C (C-terminal domain of α-tubulin, the last 42 residues, fused to YFP) (from UniProt Q71U36 1-451) (domain or fragment)”, the FRET efficiency E in assay [4] was found to be 22.8%.

By stoichiometry N is commonly meant the number of molecules, sites or subunits per partner or assembly.
